In paper PMC3936483 (The Biochemical journal, 2008):
Several values for one entry are separate records, joined by “and”; a condition that tells them apart may be missing. Equal values may be shown once. Read-outs that look alike come from different tables or passages of the source.

Experiments:
SEC [1] = target: the molecule itself; assay: SEC
SEC [2] = target: the molecule itself; assay: SEC; remark: listed apart in the source

Row | Protein | stoichiometry N (SEC [1]) | stoichiometry N (SEC [2])
1 | adiponectin, C-terminal FLAG- or HA-tagged, full length (natural protein, UniProt Q60994 18-247, looked up) EDDVTTTEELAPALVPPPKGTCAGWMAGIPGHPGHNGTPGRDGRDGTPGEKGEKGDAGLLGPKGETGDVGMTGAEGPRGFPGTPGRKGEPGEAAYVYRSAFSVGLETRVTVPNVPIRFTKIFYNQQNHYDGSTGKFYCNIPGLYYFSYHITVYMKDVKVSLFKKDKAVLFTYDQYQEKNVDQASGSVLLHLEVGDQVWLQVYGDGDHNGLYADNVNDSTFTGFLLYHDTN | 3 and 6 | 
2 | CTRP10 (C1q/TNF-related protein 10), C-terminal FLAG- or HA-tagged, full length (natural protein, mouse, UniProt Q8CFR0 22-287, looked up, carbohydrate moieties (type and sites not determined; none N-linked)) HYEMLGTCRMICDPYSVAPAGGPAGAKAPPPGPSTAALEVMQDLSANPPPPFIQGPKGDPGRPGKPGPRGPPGEPGPPGPRGPPGEKGDSGRPGLPGLQLTTSAAGGVGVVSGGTGGGGDTEGEVTSALSAAFSGPKIAFYVGLKSPHEGYEVLKFDDVVTNLGNHYDPTTGKFSCQVRGIYFFTYHILMRGGDGTSMWADLCKNGQVRASAIAQDADQNYDYASNSVVLHLDSGDEVYVKLDGGKAHGGNNNKYSTFSGFLLYPD | 3 and ~6 | 
3 | CTRP10ΔCys (C29A/C33A), C-terminal FLAG-tagged (natural protein, mouse, UniProt Q8CFR0 22-287, looked up) HYEMLGTARMIADPYSVAPAGGPAGAKAPPPGPSTAALEVMQDLSANPPPPFIQGPKGDPGRPGKPGPRGPPGEPGPPGPRGPPGEKGDSGRPGLPGLQLTTSAAGGVGVVSGGTGGGGDTEGEVTSALSAAFSGPKIAFYVGLKSPHEGYEVLKFDDVVTNLGNHYDPTTGKFSCQVRGIYFFTYHILMRGGDGTSMWADLCKNGQVRASAIAQDADQNYDYASNSVVLHLDSGDEVYVKLDGGKAHGGNNNKYSTFSGFLLYPD | 3 | 
4 | CTRP6 (C1q/TNF-related protein 6), C-terminal FLAG- or HA-tagged, full length (natural protein, UniProt Q6IR41 25-264, looked up, N-linked glycans (sites not given)) VPTEETTFGESVASHLPKGCRRCCDPEDLMSSDDTVQAPVSPYVLPEVRPYINITILKGDKGDRGPTGTPGKPGKNGTRGDRGSQGVKGDKGQAGSPGSSCQTHYSAFSVGRKTGLHSSENFLSLLFDRVFVNTDGHFDMATGSFVAPLRGLYFFSLNVHSWNYKETYVHIVHNEQAVVILYAQPSERSIMQSQSVMLPLVPGDRVWVRLFKRERENGIYSDDVDTYITFSGHLIKAEDN | ~6 and 3 | 
5 | CTRP6ΔCys (C44A/C47A/C48A/C125A), C-terminal FLAG- or HA-tagged (natural protein, UniProt Q6IR41 25-264, looked up) VPTEETTFGESVASHLPKGARRAADPEDLMSSDDTVQAPVSPYVLPEVRPYINITILKGDKGDRGPTGTPGKPGKNGTRGDRGSQGVKGDKGQAGSPGSSAQTHYSAFSVGRKTGLHSSENFLSLLFDRVFVNTDGHFDMATGSFVAPLRGLYFFSLNVHSWNYKETYVHIVHNEQAVVILYAQPSERSIMQSQSVMLPLVPGDRVWVRLFKRERENGIYSDDVDTYITFSGHLIKAEDN | 3 | 
6 | CTRP3ΔCys (C39A/C42A/C43A), C-terminal FLAG-tagged (natural protein, UniProt Q9ES30 23-246, looked up) QDEYMESPQAGGLPPDASKAAHGDYGFRGYQGPPGPPGPPGIPGNHGNNGNNGATGHEGAKGEKGDKGDLGPRGERGQHGPKGEKGYPGVPPELQIAFMASLATHFSNQNSGIIFSSVETNIGNFFDVMTGRFGAPVSGVYFFTFSMMKHEDVEEVYVYLMHNGNTVFSMYSYETKGKSDTSSNHAVLKLAKGDEVWLRMGNGALHGDHQRFSTFAGFLLFETK | 3 | 
7 | CTRP3 (C1q/TNF-related protein 3), C-terminal FLAG- or HA-tagged, full length (natural protein, UniProt Q9ES30 23-246, looked up, carbohydrate moieties (type and sites not determined; none N-linked)) QDEYMESPQAGGLPPDCSKCCHGDYGFRGYQGPPGPPGPPGIPGNHGNNGNNGATGHEGAKGEKGDKGDLGPRGERGQHGPKGEKGYPGVPPELQIAFMASLATHFSNQNSGIIFSSVETNIGNFFDVMTGRFGAPVSGVYFFTFSMMKHEDVEEVYVYLMHNGNTVFSMYSYETKGKSDTSSNHAVLKLAKGDEVWLRMGNGALHGDHQRFSTFAGFLLFETK | 3 and ~6 | 
8 | CTRP1ΔCys (C73A/C76A/C77A/C141A), C-terminal FLAG-tagged (natural protein, mouse, UniProt Q9QXP7 26-281, looked up) LVPRVQEEQQEWEETEELPSPLDPVTRPEETREKYSPRQGEDLPTSRAYRAADPSTPVYQTIPPPQINITILKGEKGDRGDRGLQGKYGKIGSTGPRGHVGPKGQKGSIGAPGNHAKSQYAAFSVGRKKALHSNDYFQPVVFDTEFVNLYKHFNMFTGKFYCYVPGIYFFSLNVHTWNQKETYLHIMKNEEEVVILYAQVSDRSIMQSQSLMMELREEDEVWVRLFKGERENAIFSDEFDTYITFSGYLVKPASEP | 3 | 
9 | CTRP1 (C1q/TNF-related protein 1), C-terminal FLAG- or HA-tagged, full length (natural protein, mouse, UniProt Q9QXP7 26-281, looked up, N-linked glycans (site not given)) LVPRVQEEQQEWEETEELPSPLDPVTRPEETREKYSPRQGEDLPTSRCYRCCDPSTPVYQTIPPPQINITILKGEKGDRGDRGLQGKYGKIGSTGPRGHVGPKGQKGSIGAPGNHCKSQYAAFSVGRKKALHSNDYFQPVVFDTEFVNLYKHFNMFTGKFYCYVPGIYFFSLNVHTWNQKETYLHIMKNEEEVVILYAQVSDRSIMQSQSLMMELREEDEVWVRLFKGERENAIFSDEFDTYITFSGYLVKPASEP | 3 | 
10 | CTRP5ΔCys (C28A/C98A), C-terminal FLAG-tagged (natural protein, UniProt Q8K479 16-243, looked up) SPPLDDNKIPSLAPGQPGLPGTPGHHGSQGLPGRDGRDGRDGAPGAPGEKGEGGRPGLPGPRGEPGPRGEAGPMGAIGPAGEASVPPRSAFSAKRSESRVPPPADTPLPFDRVLLNEQGHYDPTTGKFTCQVPGVYYFAVHATVYRASLQFDLVKNGQSIASFFQYFGGWPKPASLSGGAMVRLEPEDQVWVQVGVGDYIGIYASIKTDSTFSGFLVYSDWHSSPVFA | 3 | 
11 | serum CTRP5 (natural protein, mouse (endogenous in C57BL/6 serum), UniProt Q8K479 16-243, looked up) SPPLDDNKIPSLCPGQPGLPGTPGHHGSQGLPGRDGRDGRDGAPGAPGEKGEGGRPGLPGPRGEPGPRGEAGPMGAIGPAGECSVPPRSAFSAKRSESRVPPPADTPLPFDRVLLNEQGHYDPTTGKFTCQVPGVYYFAVHATVYRASLQFDLVKNGQSIASFFQYFGGWPKPASLSGGAMVRLEPEDQVWVQVGVGDYIGIYASIKTDSTFSGFLVYSDWHSSPVFA |  | 3
12 | CTRP5 (C1q/TNF-related protein 5), C-terminal FLAG- or HA-tagged, full length (natural protein, UniProt Q8K479 16-243, looked up, carbohydrate moieties (type and sites not determined; none N-linked)) SPPLDDNKIPSLCPGQPGLPGTPGHHGSQGLPGRDGRDGRDGAPGAPGEKGEGGRPGLPGPRGEPGPRGEAGPMGAIGPAGECSVPPRSAFSAKRSESRVPPPADTPLPFDRVLLNEQGHYDPTTGKFTCQVPGVYYFAVHATVYRASLQFDLVKNGQSIASFFQYFGGWPKPASLSGGAMVRLEPEDQVWVQVGVGDYIGIYASIKTDSTFSGFLVYSDWHSSPVFA | 3 and ~6 | 
